Where a chain is given by its changes, count along the chain named.
T1: GFP-9S library array, motif 4 ND N98V;D124T (synthetic construct, N98V;D124T)
T1 chain: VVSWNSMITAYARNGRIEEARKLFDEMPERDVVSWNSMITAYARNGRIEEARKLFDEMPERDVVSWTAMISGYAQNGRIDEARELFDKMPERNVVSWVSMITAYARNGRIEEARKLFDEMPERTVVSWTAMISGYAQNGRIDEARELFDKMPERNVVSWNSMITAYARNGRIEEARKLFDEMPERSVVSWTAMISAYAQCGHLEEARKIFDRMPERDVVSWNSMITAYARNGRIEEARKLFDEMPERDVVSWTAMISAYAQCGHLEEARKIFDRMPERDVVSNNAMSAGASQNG

T2: GFP-9S library array, motif 4 ND N98S;D124Q (synthetic construct, N98S;D124Q)
T2 chain: T1 chain with V98S, T124Q

T3: GFP-9S library array, motif 4 ND D124I (synthetic construct, D124I)
T3 chain: T1 chain with V98N, T124I

T4: GFP-9S library array, motif 4 ND N98I;D124P (synthetic construct, N98I;D124P)
T4 chain: T1 chain with V98I, T124P

T5: GFP-9S library array, motif 4 ND N98Y;D124P (synthetic construct, N98Y;D124P)
T5 chain: T1 chain with V98Y, T124P


Assays:
Assay in all cases: high-throughput RNA pulldown from lysate on Ni-NTA beads; HRP: 50 mM Tris pH 8, 150 mM NaCl, 1 mM beta-mercaptoethanol, 50 ug/ml BSA, 3 ug/ml yeast RNA, 0.5% heparin; ITC and FP: Tris pH 8, 200 mM KCl, 5% glycerol; MST: 50 mM Tris pH 8, 200 mM NaCl, 1 mM DTT, BSA, heparin, 0.05% Tween 20
Details in all cases: tags: N-terminal His-eGFP
[1] = target: T1, GFP-9S library array, motif 4 ND …
[2] = target: T2, GFP-9S library array, motif 4 ND …
[3] = target: T3, GFP-9S library array, motif 4 ND D124I
[4] = target: T4, GFP-9S library array, motif 4 ND …
[5] = target: T5, GFP-9S library array, motif 4 ND …

Binder	Kd ([1]; label: 5' IRDye 800CW) [nM]	Kd ([2]; label: 5' IRDye 800CW) [nM]	Kd ([3]; label: 5' IRDye 800CW) [nM]	Kd ([4]; label: 5' IRDye 800CW) [nM]	Kd ([5]; label: 5' IRDye 800CW) [nM]	Kd ([1]; label: 5' Cy5) [nM]	Kd ([2]; label: 5' Cy5) [nM]	Kd ([3]; label: 5' Cy5) [nM]	Kd ([4]; label: 5' Cy5) [nM]	Kd ([5]; label: 5' Cy5) [nM]
AUUAAACGUGA (ssRNA) [IR-rpoA-A]	36.3	40.3	184	266	219					
AUUAGACGUGA (ssRNA) [Cy5-rpoA-G]						86.7	39.2	86.2	112	110
AUUAUACGUGA (ssRNA) [IR-rpoA-U]	29.3	179	26.7	269	160					
AUUACACGUGA (ssRNA) [Cy5-rpoA]						89.3	95.2	53.8	132	106
